Results: patent publication US12723100 (CSPC MEGALITH BIOPHARMACEUTICAL, dated 2026)
Residue numbers refer to the chain shown, from its start. Blank lines part the entries; values can stand above or below the binder they belong to.

Columns and labels:
rat Nectin-4 [1] = target: T1, rat Nectin-4 (rat, UniProt Q8R007 31-508 (mouse entry)); test: flow cytometry, transfected 293T cells; +++ EC50 less than 5 nM
T1 construct: Transiently expressed on 293T cells
T1 chain: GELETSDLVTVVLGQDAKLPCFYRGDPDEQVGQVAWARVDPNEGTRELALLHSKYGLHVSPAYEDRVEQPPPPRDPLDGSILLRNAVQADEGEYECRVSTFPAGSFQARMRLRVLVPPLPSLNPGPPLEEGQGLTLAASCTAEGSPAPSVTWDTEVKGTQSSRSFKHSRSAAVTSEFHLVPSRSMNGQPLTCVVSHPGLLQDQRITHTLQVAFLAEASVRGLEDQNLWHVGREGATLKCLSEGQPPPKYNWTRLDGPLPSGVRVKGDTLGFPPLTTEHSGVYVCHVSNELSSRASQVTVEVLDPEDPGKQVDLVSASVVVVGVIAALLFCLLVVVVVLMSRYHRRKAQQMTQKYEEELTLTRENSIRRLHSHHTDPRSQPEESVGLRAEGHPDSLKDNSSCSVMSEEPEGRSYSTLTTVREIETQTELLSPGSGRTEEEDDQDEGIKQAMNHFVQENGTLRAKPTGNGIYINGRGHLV
Procedure: (§1) CDNAs encoding Nectin-4 protein from cynomolgus monkey (SEQ ID NO: 62), rat (SEQ ID NO: 63), or mouse (SEQ ID NO: 64) were separately cloned into a pcDNA3.1-based mammalian expression plasmid. The respective plasmids were transfected to human 293T cells in a similar way described in Example 6. The binding EC50 of disclosed human Nectin-4 antibodies to species-specific Nectin-4 transiently expressed on 293T cell surface was measured by flow cytometry.

rat Nectin-4 [2] = target: T1, rat Nectin-4; test: flow cytometry, transfected 293T cells; ++ EC50 between 5 nM and 25 nM
Procedure: as §1

[3] = target: T2, full-length human Nectin-4 on cells (human, UniProt Q96NY8 32-510); test: flow cytometry competition on CHO-Nectin-4 cells; competitor biotinylated human TIGIT; TIGIT as competitor
T2 construct: the cell is named under assay; also called CHO-Nectin-4 cells; Nectin-4-CHO
T2 sequence: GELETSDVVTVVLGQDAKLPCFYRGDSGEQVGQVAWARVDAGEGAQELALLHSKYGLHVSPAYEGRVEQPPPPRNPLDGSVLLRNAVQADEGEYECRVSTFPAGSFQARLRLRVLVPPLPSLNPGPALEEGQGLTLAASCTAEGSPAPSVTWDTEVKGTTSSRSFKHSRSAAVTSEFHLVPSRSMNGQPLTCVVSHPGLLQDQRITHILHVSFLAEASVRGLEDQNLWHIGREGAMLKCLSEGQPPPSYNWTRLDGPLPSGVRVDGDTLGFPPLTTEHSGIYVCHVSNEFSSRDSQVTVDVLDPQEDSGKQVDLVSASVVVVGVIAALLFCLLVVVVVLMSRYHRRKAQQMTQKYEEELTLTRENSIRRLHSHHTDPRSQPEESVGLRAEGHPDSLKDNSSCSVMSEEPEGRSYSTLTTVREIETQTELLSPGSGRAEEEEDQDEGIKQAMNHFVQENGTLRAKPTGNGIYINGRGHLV
Procedure: The ability of disclosed Nectin4-specific antibodies to block TIGIT binding to CHO-Nectin-4 cells was assessed by FACS. Briefly, CHO-Nectin-4 cells were incubated with dilutions of the disclosed purified recombinant antibodies. Then, biotinylated human TIGIT protein (SinoBiologic, catalog: 10917-H08H-B, lot: LC13AP0902) was added to the plate. After 30-minute incubation, cells were washed, followed by adding Streptavidin Alexa 647 (1:1000) to the samples. After a 30 minute incubation, the samples were analyzed on a flow cytometry instrument (Intellicyte, IQue plus, Sartorius) for TIGIT blocking activity. The positive control antibody used in this blocking assay is PC2, a Nectin-4 antibody with known blocking activity.

[4] = target: T2, full-length human Nectin-4 on cells; test: flow cytometry competition on CHO-Nectin-4 cells; competitor biotinylated human Nectin-1-His; Nectin-1 as competitor
Procedure: The ability of disclosed Nectin4-specific antibodies to block Nectin-1 binding to Nectin-4 expressing cells (CHO cells transfected with human Nectin-4) was determined by FACS. Briefly, CHO-Nectin-4 cells were incubated with dilutions of the disclosed Nectin-4 purified recombinant antibodies. Then, biotinylated human Nectin-1 with His tag (ACROBiosystems, catalog number: PV1-H5223, lot: 733-38GS1-47, 0.75 ug/ml) was added to the plate. After 30-minute incubation, cells were washed, followed by adding Streptavidin Alexa 647 (1:1000) to the samples. After a 30 minute incubation, the samples were analyzed on a flow cytometry instrument (Intellicyte, IQue plus, Sartorius) for Nectin-1 blocking activity. The positive control antibody used in this blocking assay is a reference antibody (known to be a recombinant Nectin-4 specific antibody, made by Novarock Biotherapeutics, lot: 03042020KD).

rat Nectin-4 [5] = target: T1, rat Nectin-4; test: flow cytometry, transfected 293T cells; + EC50 between 25 nM and 133 nM
Procedure: as §1

mouse Nectin-4 = target: T3, mouse Nectin-4 (mouse, UniProt Q8R007 31-508); test: as above
T3 construct: Transiently expressed on 293T cells; also called murine Nectin-4
T3 sequence: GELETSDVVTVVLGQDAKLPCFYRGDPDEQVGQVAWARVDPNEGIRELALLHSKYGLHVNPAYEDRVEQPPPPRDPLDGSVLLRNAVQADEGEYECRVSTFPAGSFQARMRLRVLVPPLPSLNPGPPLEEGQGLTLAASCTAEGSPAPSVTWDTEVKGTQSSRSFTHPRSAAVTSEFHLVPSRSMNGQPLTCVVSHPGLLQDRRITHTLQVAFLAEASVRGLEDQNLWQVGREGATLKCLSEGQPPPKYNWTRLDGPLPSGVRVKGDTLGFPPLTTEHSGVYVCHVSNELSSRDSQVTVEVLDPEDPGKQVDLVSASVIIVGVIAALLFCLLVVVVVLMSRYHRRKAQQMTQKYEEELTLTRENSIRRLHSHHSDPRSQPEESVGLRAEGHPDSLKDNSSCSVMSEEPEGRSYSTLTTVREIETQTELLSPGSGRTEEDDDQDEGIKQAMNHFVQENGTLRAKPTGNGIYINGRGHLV
Procedure: as §1

EC50 (rat Nectin-4 [1]): < 5 nM
B1: N4_mAb 6 (antibody, human IgG1, V domains shown)
VH: QVQLQQSGPELVKPGASVRISCKASGYTFTTYYIHWVKQRPGQGLEWIGWIYPGNVNTKYTENFKDKATLTADKSSSTAYMQLSSLTSEDSAVYFCARGLYYFDFWGQGTTLTVSS
VL: SIVMTQTPKFLLVSAGDRVTITCKASQSVNNDVAWYQQKPGQSPKLLIYYASNRDTGVPDRFTGSGFGTDFTFTISSVQAEDLAVYFCQQDYSSPYTFGGGTKLEIK
notes: Tested as chimera (murine variable regions, human IgG1/kappa constants); not shown: human IgG1 constant region (Uniprot P01857); human Kappa light chain constant region (UniProt P01834)

EC50 (rat Nectin-4 [1]): < 5 nM
B2: N4_mAb 7 (antibody, human IgG1, V domains shown)
VH: QVQLQQSGPELVKPGASVKMSCKASGYTFTTYYIHWVKQRPGQGLEWIGWIYPGNAGIKSNEKFKGKTTLTADKSSSTAYMLLSSLTSEDSAIYFCARGVYFFDYWGQGTTLTVSS
VL: B1 VL with A34S, Y36F, D55Y, T63S, F67Y, S76T, S77T
notes: as for B1

EC50 (rat Nectin-4 [1]): < 5 nM
B3: N4_mAb 8 (antibody, human IgG1, V domains shown)
VH: B1 VH with E10V, T31S, T61N, K65R, A79S, L100I, F105Y
VL: B1 VL with S1I, Q38E, F67Y, S77T, Q89H, Y96F, G100S
notes: as for B1

Continued, binder first:

B4: N4_mAb 2 (antibody, human IgG1, V domains shown)
VH: QVQLKQSGPNLVQPSQSLSITCTVSGFSLTTYGAHWVRQSPGKGLEWLGVIWRGGSTDYNAAFMSRLSITKDNSKSQVFFKMNSLQADDTAIYYCAKIGYDGYAMDNWGQGTSVTVSS
VL: DFQVTQSPASLSASVGETVTITCRTSENIHNYLAWYQQKQGKSPQLLVYNAKTLADGVPSRFSGSGSGTQYSLKINSLQPEDFGTYYCQHFWSSPWTFGGGTKLEIK
notes: Tested as chimera (human IgG1/kappa constants); not shown: human IgG1 constant region (Uniprot P01857); human Kappa light chain constant region (UniProt P01834)
EC50 (rat Nectin-4 [2]): 5 to 25 nM

B5: N4_mAb 4 (antibody, human IgG1, V domains shown)
VH: DVQLQESGPDLVKPSQSLSLTCTVTGYSITSAYNWHWIRQFPGNKLEWMGYIHYSGRTNYNPSLKSRISITRDTSKNQFFLQLNSLTTEDTATYYCARWITTATGWYLDVWGAGTTVTVSS
VL: not shown
notes: as for B4
EC50 [3]: > 130 nM
EC50 [4]: > 130 nM
EC50 (rat Nectin-4 [5]): 25 to 133 nM

B6: N4_mAb 3 (antibody, human IgG1, V domains shown)
VH: EVQLQQSGAELVKPGASVKLSCTVSGFNIKDTYMHWVKQRPEQGLEWIGRIDPANGNTKYDPKFQGKATIIADKASNTAYLQLSSLTSEDAAVYYCAHYYGSSYFAMDCWGQGTSVTVSS
VL: DIVMTQSHKFMSTSVGDRVSITCKASQDVSTAVAWYQQKPGQSPKLLIYWASTRHTGVPDRFTGSGSGTDYTLTISSVQTEDLALYYCQQHYSTPLTFGAGTKLELK
notes: as for B4
EC50 (rat Nectin-4 [5]): 25 to 133 nM

B7: N4_mAb 5 (antibody, human IgG1, V domains shown)
VH: EVQLQQSGPDLVKPGASVKISCKASGYSFTGHYMHWVKQSHGKSLEWIGRVNPNNGGSSYNQKFKDKAILTVDKSSTTAYMELRSLTSEDSAVYYCARDPLGGSYGFAYWGQGTLVTVSA
VL: DIVLTQSPASLAVSLGQRATISCRASQSVTTSSYSYMHWYQQKPGQPPKLLIKYASNLESGVPARFSGSGSGTDFTLNIHPVEEEDTATYYCQHSWEIPYTFGGGTKLEMK
notes: as for B4
EC50 (rat Nectin-4 [1]): < 5 nM
EC50 (mouse Nectin-4): 25 to 133 nM
